Source: US20250207140 (published 2025)

Target: SARS-CoV-2 spike protein (original strain) (SARS-CoV-2, UniProt P0DTC2 P0DTC2:14-1273)
Assay: flow

B1: SEQ ID NO: 14 aptamer (72 nt truncation of SEQ ID NO: 1) (ssRNA)
RNA: GGGAGAGCGGAAGCGUGCUGGGCCCCUUUGACCAUAGGAGGCAAGUCUUAUGUUCAAACUGGUCCAUAACCC
modifications: 2'-F pyrimidines
- Kd: 20.7 nM
